Two molecules from patent US20210395372A1 (published 2021) can be followed below.

For this test, the target named is T1, human Met-Fc chimera (human, UniProt P08581 25-932).
T1 chain: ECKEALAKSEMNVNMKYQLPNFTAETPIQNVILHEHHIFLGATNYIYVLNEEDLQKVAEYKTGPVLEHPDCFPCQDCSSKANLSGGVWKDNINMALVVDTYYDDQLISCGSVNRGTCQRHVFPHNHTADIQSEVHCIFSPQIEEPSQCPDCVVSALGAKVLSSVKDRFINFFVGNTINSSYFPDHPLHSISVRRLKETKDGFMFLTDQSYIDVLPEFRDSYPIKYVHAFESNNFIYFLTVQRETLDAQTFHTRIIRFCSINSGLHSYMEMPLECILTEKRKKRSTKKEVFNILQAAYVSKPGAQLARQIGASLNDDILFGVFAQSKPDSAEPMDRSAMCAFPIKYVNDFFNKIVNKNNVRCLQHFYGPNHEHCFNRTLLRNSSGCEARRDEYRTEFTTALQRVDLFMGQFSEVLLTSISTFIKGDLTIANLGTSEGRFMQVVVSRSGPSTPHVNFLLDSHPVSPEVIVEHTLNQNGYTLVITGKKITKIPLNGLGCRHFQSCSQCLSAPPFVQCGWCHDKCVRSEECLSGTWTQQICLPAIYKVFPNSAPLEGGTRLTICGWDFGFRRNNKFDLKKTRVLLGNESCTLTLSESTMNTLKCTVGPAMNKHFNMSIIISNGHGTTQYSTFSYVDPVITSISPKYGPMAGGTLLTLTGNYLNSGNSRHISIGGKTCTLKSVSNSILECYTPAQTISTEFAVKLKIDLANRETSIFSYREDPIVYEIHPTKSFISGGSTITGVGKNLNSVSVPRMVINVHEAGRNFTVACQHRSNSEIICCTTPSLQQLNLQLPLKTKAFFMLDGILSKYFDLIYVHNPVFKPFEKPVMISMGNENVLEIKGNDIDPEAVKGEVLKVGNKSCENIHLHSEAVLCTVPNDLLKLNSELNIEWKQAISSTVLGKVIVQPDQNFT
The test can be described thus: ELISA. (In general: In an ELISA, binding on a coated surface is turned into a signal by an enzyme label.)

B1: MvDN30 (Fab, V domains shown)
VH: QVQLQQPGTELVKPGASVKLSCKASGYTFTSYWIHWVKQRPGQGLEWIGEINPSSGRTNYNEKFKNKVTVTVDKSSTTAYMQLSNLTSEDSAVYYCASRGYWGQGTTLTVSS
VL: DIVLTQSPASLAVSLGQRATISCKASQSVDYDGGSYMSWFQQRPGQPPKLLISAASNLESGIPARFSGSGSGTDFTLNIHPVEEEDVATYYCQQSYEDPLTFGAGTKVEIK
On to B1, for which binding was put at a Kd of 0.21 nM.

B2: hOA-DN30-cl04H08 (antibody)
light: DIVLTQSPASLAVSLGERATINCKASQSVDYDGGSYMSWYQQRPGQPPKLLIYAASNLESGVPDRFSGSGSGTDFTLTIHSLQAEDVATYYCQQSYEDPLTFGGGTKVEIKRTVAAPSVFIFPPSDEQLKSGTASVVCLLNNFYPREAKVQWKVDNALQSGNSQESVTEQDSKDSTYSLSSTLTLSKADYEKHKVYACEVTHQGLSSPVTKSFNRGEC
heavy: not shown
chain: not shown
With B2, the Kd (in general, a measure of binding affinity in units of concentration) turned out to be 0.686 nM.
